Test results reported in publication PMC8651671.
Values belong to the molecule of their own block, whether it stands above or below them.

Assays:
[1] = target: T1, DhdR; test: ITC; also thermal shift (ΔTm […] °C), EMSA, AlphaScreen; assay type: binding, Achromobacter denitrificans
T1 construct: His6-tagged DhdR

[2] = target: T2, SerA (Achromobacter denitrificans, UniProt A0A3R9FY19); test: product of 2-KG reduction by purified enzyme; assay type: biochemical
T2 sequence (A0A3R9FY19 1-399): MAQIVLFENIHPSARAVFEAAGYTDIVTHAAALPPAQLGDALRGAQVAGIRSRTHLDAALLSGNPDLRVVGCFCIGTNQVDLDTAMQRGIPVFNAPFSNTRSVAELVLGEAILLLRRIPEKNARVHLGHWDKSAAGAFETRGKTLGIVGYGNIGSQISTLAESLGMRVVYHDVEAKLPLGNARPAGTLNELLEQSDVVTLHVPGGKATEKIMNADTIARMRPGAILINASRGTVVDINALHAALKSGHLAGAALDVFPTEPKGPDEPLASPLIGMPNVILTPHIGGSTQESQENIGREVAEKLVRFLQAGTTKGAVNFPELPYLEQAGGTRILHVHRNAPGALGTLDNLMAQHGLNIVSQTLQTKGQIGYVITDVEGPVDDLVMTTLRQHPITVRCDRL

[3] = target: WbpB (Pseudomonas aeruginosa, UniProt G3XD23); test: HPLC product analysis, biosensor assay and bound-NADH oxidation with purified enzyme; assay type: biochemical
[4] = target: 3-phosphoglycerate dehydrogenase (SerA) of Achromobacter denitrificans NBRC 15125 (Achromobacter denitrificans NBRC 15125); test: SEC; Superdex 200 10/300 GL, 50 mM sodium phosphate, 150 mM NaCl, pH 7.2, 0.5 mL min^-1; native molecular weight against standard proteins, compared with SDS-PAGE
[5] = target: D-2-HG dehydrogenase (D2HGDH) of Achromobacter denitrificans NBRC 15125 (Achromobacter denitrificans NBRC 15125); test: as above
[6] = target: D-2-hydroxyglutarate dehydrogenase regulator (DhdR) of Achromobacter denitrificans NBRC 15125 (Achromobacter denitrificans NBRC 15125); test: as above
[7] = target: T3, DhdR (GntR family regulator) (Achromobacter denitrificans NBRC 15125, UniProt A0A6N0JVZ6 1-238); test: ITC; EMSA/footprint: 10 mM Tris-HCl pH 7.4, 50 mM KCl, 0.5 mM EDTA, 10% glycerol, 1 mM DTT, 30 C; ITC: 25 C, same buffer as FTS assays (composition not in material); conditions: protein: recombinant; tags: His6 (pETDuet-1); chain copies: 2; blunt
T3 sequence: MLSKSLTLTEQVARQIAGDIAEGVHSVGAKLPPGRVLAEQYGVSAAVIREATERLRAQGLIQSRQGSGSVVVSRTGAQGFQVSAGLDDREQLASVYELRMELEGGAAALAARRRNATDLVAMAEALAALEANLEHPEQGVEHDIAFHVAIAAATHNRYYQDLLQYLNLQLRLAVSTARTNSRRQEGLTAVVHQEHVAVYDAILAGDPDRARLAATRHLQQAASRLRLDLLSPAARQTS

[8] = target: T3, DhdR (GntR family regulator); test: ITC; Supplementary Table 4 prints 3.03; EMSA/footprint: 10 mM Tris-HCl pH 7.4, 50 mM KCl, 0.5 mM EDTA, 10% glycerol, 1 mM DTT, 30 C; ITC: 25 C, same buffer as FTS assays (composition not in material); conditions: protein: recombinant; tags: His6 (pETDuet-1); chain copies: 2; blunt

Sequence of WbpB (G3XD23 whole entry): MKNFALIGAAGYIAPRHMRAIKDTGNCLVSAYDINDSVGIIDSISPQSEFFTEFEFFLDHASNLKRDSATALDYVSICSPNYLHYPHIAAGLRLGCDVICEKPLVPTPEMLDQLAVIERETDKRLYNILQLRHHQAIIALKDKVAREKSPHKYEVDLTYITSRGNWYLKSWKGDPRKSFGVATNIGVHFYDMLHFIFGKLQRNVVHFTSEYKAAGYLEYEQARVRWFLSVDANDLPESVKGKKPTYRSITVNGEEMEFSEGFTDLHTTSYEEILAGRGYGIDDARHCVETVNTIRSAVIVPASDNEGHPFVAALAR

Kd [1]: 1160 ± 160 nM
Molecule: O=C(O)CC[C@@H](O)C(=O)O [D-2-HG]
product of 2-KG reduction by purified enzyme [2]: It was also able to reduce 2-KG to D-2-HG

Molecule: O=C(O)CCC(=O)C(=O)O [2-KG]
HPLC product analysis, biosensor assay and bound-NADH oxidation with purified en [3]: confirmed that WbpB also catalyzes the reduction of 2-KG to produce D-2-HG

stoichiometry N [4]: 4
Molecule: 3-phosphoglycerate dehydrogenase (SerA) of Achromobacter denitrificans NBRC 15125 (enzyme)

stoichiometry N [5]: 2
Molecule: D-2-HG dehydrogenase (D2HGDH) of Achromobacter denitrificans NBRC 15125 (enzyme)

stoichiometry N [6]: 2
Molecule: D-2-hydroxyglutarate dehydrogenase regulator (DhdR) of Achromobacter denitrificans NBRC 15125 (natural protein)

B1: D3 (dhdO 3#) (dsDNA)
DNA 1: AAAGTGATCAGATAACCTGAAAAGTAG
DNA 2: CTACTTTTCAGGTTATCTGATCACTTT
Kd [7]: 1190 ± 250 nM

B2: D11 (dhdO 11#) (dsDNA)
DNA 1: AAATTTATAAGATAACCTGAAAAGTAG
DNA 2: CTACTTTTCAGGTTATCTTATAAATTT
Kd [7]: 3230 ± 1410 nM

B3: D0 (dhdO 0#) (dsDNA)
DNA 1: AAAGTTATCAGATAACCTGAAAAGTAG
DNA 2: CTACTTTTCAGGTTATCTGATAACTTT
Kd [7]: 640 ± 100 nM

B4: D1 (dhdO 1#) (dsDNA)
DNA 1: AAATTTATCAGATAACCTGAAAAGTAG
DNA 2: CTACTTTTCAGGTTATCTGATAAATTT
Kd [8]: 3290 ± 720 nM

B5: D4 (dhdO 4#) (dsDNA)
DNA 1: AAAGTTCTCAGATAACCTGAAAAGTAG
DNA 2: CTACTTTTCAGGTTATCTGAGAACTTT
Kd [7]: 580 ± 90 nM

B6: D8 (dhdO 8#) (dsDNA)
DNA 1: AAATTGATCAGATAACCTGAAAAGTAG
DNA 2: CTACTTTTCAGGTTATCTGATCAATTT
Kd [7]: 4020 ± 920 nM

B7: D12 (dhdO 12#) (dsDNA)
DNA 1: AAAGGGATCAGATAACCTGAAAAGTAG
DNA 2: CTACTTTTCAGGTTATCTGATCCCTTT
Kd [7]: 6250 ± 1820 nM

B8: D6 (dhdO 6#) (dsDNA)
DNA 1: AAAGTTATAAGATAACCTGAAAAGTAG
DNA 2: CTACTTTTCAGGTTATCTTATAACTTT
Kd [7]: 730 ± 180 nM

B9: D10 (dhdO 10#) (dsDNA)
DNA 1: AAATTTAGCAGATAACCTGAAAAGTAG
DNA 2: CTACTTTTCAGGTTATCTGCTAAATTT
binding result [7]: no binding

B10: D13 (dhdO 13#) (dsDNA)
DNA 1: AAAGGTCTCAGATAACCTGAAAAGTAG
DNA 2: CTACTTTTCAGGTTATCTGAGACCTTT
Kd [7]: 2460 ± 510 nM

B11: D2 (dhdO 2#) (dsDNA)
DNA 1: AAAGGTATCAGATAACCTGAAAAGTAG
DNA 2: CTACTTTTCAGGTTATCTGATACCTTT
Kd [7]: 2670 ± 530 nM

B12: D7 (dhdO 7#) (dsDNA)
DNA 1: AAATGTATCAGATAACCTGAAAAGTAG
DNA 2: CTACTTTTCAGGTTATCTGATACATTT
Kd [7]: 5810 ± 2150 nM

B13: D9 (dhdO 9#) (dsDNA)
DNA 1: AAATTTCTCAGATAACCTGAAAAGTAG
DNA 2: CTACTTTTCAGGTTATCTGAGAAATTT
Kd [7]: 3230 ± 1270 nM

B14: D5 (dhdO 5#) (dsDNA)
DNA 1: AAAGTTAGCAGATAACCTGAAAAGTAG
DNA 2: CTACTTTTCAGGTTATCTGCTAACTTT
Kd [7]: 1140 ± 370 nM
